Measured values: the DeepSol protein solubility set

Experiment: soluble on expression in E. coli; label from the status in PepcDB or PDB records

Sequence	soluble on expression in E. coli
MSLNVDLHCHSTASDGALSPSVLVARAHEHGVQALALTDHDTLEGLPEARQACVDLGMRWVSGVELSCTWGGATIHVLGYDFPLDAPPLLAAIQALHHGRWLRAEEIDRRLAAKGMPGTLEGARAVQHELGDSGNAPARPHFAEYLVRAGHVKDRGEAFRKWLGAGKLGDVKQHWPTLDETVATLRQSNAWVSLAHPMHYDLTRSKRRRLIADYIQAGGQALEVVNGMMPAEQVGTMSILAREFGLLASAGSDFHGPGTWGEIGAYRPLPEDLPPLWRRFSHEEGHHHHHH	soluble
MIDKVRAFIHRHQLLSEGAAVIVGVSGGPDSLALLHVFLSLRDEWKLQVIAAHVDHMFRGRESEEEMEFVKRFCVERRILCETAQIDVPAFQRSAGLGAQEAARICRYRFFAELMEKHQAGYVAVGHHGDDQVETILMRLVRGSTSKGYAGIPVKRPFHGGYLIRPFLAVSRAEIEAYCRQMGLSPRCDPSNEKDDYTRNRFRHHIVPLLRQENPRLHERFQQYSEMMAEDEQFLEELAADALNKVMEKQHRDAALSIGPFLELPRPLQRRVLQLLLLRLYGGVPPTLTSVHIGHILMLCERGRPSGMIDLPKGLKVIRSYDRCLFTFDAESGEKGYWFELPVPALLPLPNGYAIISEFGEHYPRKQAGNDWFVVDPASVSLPLRVRTRRRGDRMVLKGTGGTKKLKEIFIEAKIPRMERDRWPIVEDADGRILWVPGLKKSAFEAQNRGQARYILLQYQAMNS	soluble
SKDVLADYKELFRQFSISDIAVWVSTPSFAGVCITEKEFNSKMLPNLESMIFIGEALSKNLTKELMSRFPNTRIINGYGPTEATVGVSVNDMTQKAIDDEK	not soluble
MTTLNSTPRADGFHMPAEWAPQTQVWMVWPERPDNWRLGGKPAQAAHVAIAKAIARFEPVTVAVSAAQYDNARARLDMPNIRVVEMSSNDAWVRDSGPTFVINDRGELRGVNWEFNAWGGFDGGLYAPWNLDSQVGSKVLEIERCPRYATQGFVLEGGSIHVDGEGTLITTEECLLNRNRNPHLTREQIEAVLSDYLAVDKIIWLPDGLFNDETDGHVDNFCCYIRPGEVLLAWTDDPEDPNYPRCHAALSILENTRDAQGRAFIVHKMPIPGPLFATEEECAGVDQVHGSQERNPSVRLAGSYVNFLIVNGGIIAPSFDDPMDEKAREILQKLFPEHEVVMAPGRELLLGGGNIHCLTQQQPAPFKALEHHHHHH	soluble
GSHMSHDGKEEPGIAKKINSVDDIIIKCQCWVQKNDEERLAEILSINTRKAPPKFYVHYVNYNKRLDEWITTDRINLDKEVLYPKLKATDED	soluble
MSTVSGLKRPQSSEKNHRDRVFVRATRGKVQKVVREQYLRNDIPCQSRACPLCRSKLPKDSRGNVLEPILSEKPMFLEKFGHHYLIPDSNIFYHCIDALEHPNNFFDVIILQTVFSEISSKSIPLYNRMKRLCQEKTKRFTPFSNEFFVDTFVERLDDESANDRNDRAIRNAASWFASHLASLGIKIVLLTDDRENARLAAEQGIQVSTLKDYVQYLPDSEILLDMVSAIADAIASKEQVESGTKNVYELHWSMSRLLACIKNGEVHKGLINISTYNYLEGSVVVPGYNKPVLVSGRENLNRAVQGDIVCIQILPQDQWKTEAEEIADDDEDVVVSTAAEPDSARINDLELITKRNAHPTAKVVGILKRNWRPYVGHVDNATIAQSKGGSQQTVLLTPMDRRVPKIRFRTRQAPRLVGRRIVVAIDLWDASSRYPEGHFVRDLGEMETKEAETEALLLEYDVQHRPFPKAVLDCLPEEGHNWKVPADKTHPLWKNRKDFRDKLICSIDPPGCQDIDDALHACVLPNGNYEVGVHIADVTHFVKPNTSMDSEAASRGTTVYLVDKRIDMLPMLLGTDLCSLRPYVERFAFSCIWEMDENANIIKVHFTKSVIASKEAFSYADAQARIDDQKMQDPLTQGMRVLLKLSKILKQKRMDEGALNLASPEVRIQTDNETSDPMDVEIKQLLETNSLVEEFMLLANISVAQKIYDAFPQTAVLRRHAAPPLTNFDSLQDILRVCKGMHLKCDTSKSLAKSLDECVDPKEPYFNTLLRILTTRCMLSAEYFCSGTFAPPDFRHYGLASPIYTHFTSPIRRYADVLAHRQLAAAIDYETINPSLSDKSRLIEICNGINYRHRMAQMAGRASIEYYVGQALKGGVAEEDAYVIKVFKNGFVVFIARFGLEGIVYTKSLSSVLEPNVEYVEDEYKLNIEIRDQPKPQTVQIQMFQQVRVRVTTVRDEHSGKQKVQITLVY	soluble
MNVTRKKGPLYLQIKNIIRDRILHGVYAIHTNIPSEPQLEEEFKVSKITVRNAIKELAQEGYLEKKSGKGTKVIRNTSATKLSKGKKFTEVLVEEGYKVQKKLLKAEIVHNEEGTVPFRLFGKESFRIERLYTLNDAPYIHYTHYFSAHMASTDLSDFDLQSLYDLVEDRGIHLENFRDEFAVGLAPSFVAEALGEKEGTALLKRMRYSYDEVGEVIEYSEGYYNTEMQHYVVNYDV	not soluble
MLAFKVVISDKEKSVQMEVDPSESRGLIGLTIGDEFDGSIIGLSGYKLKITGGSDKNGFPMKKTVPGARRIRSLVSGGVGYKPRRDGERRRKTFRGNTISDDIVQINTVVIEKLEHHHHHH	not soluble
MSLSLLSKFSRGVPSPALAHIAKRTFSSVNFSQILRRPQNSSLRLRLVRNISNSNPLPKMTEAGKNIVLKRHDLIVKGAQDAREYRGLELTNGIRVLLVSDPTTDKSAAALDVKVGHLMDPWELPGLAHFCEHMLFLGTAKYPSENEYSKFLAAHAGSSNAYTSSDHTNYHFDVKPDQLPGALDRFVQFFLSPQFTESATEREVCAVDSEHSNNLNNDLWRFLQVDRSRSKPGHDYGKFGTGNKQTLLEDARKKGIEPRDALLQFHKKWYSSDIMTCCIVGKEPLNVLESYLGTLEFDAIENKKVERKVWEEFPYGPDQLAKRIDVVPIKDTRLVSISFPFPDLNGEFLSQPGHYISHLIGHEGPGSLLSELKRLGWVSSLQSDSHTQAAGFGVYNVTMDLSTEGLEHVDEIIQLMFNYIGMLQSAGPKQWVHDELAELSAVKFRFKDKEQPMTMAINVAASLQYIPFEHILSSRYLLTKYEPERIKELLSMLSPANMQVRVVSQKFKGQEGNTNEPVYGTEMKVTDISPETMKKYENALKTSHHALHLPEKNEYIATNFDQKPRESVKNEHPRLISDDGWSRVWFKQDDEYNMPKQETKLALTTPMVAQNPRMSLLSSLWLWCLSDTLAEETYNADLAGLKCQLESSPFGVQMRVSNRREAERHASLTLHVYGYDEKQALFAKHLANRMTNFKIDKTRFDVLFESLKRALTNHAFSQPYLLTQHYNQLLIVDKVWSKEQLLAVCDSVTLEDVQGFAKEMLQAFHMELFVHGNSTEKEAIQLSKELMDVLKSAAPNSRPLYRNEHNPRRELQLNNGDEYVYRHLQKTHDVGCVEVTYQIGVQNTYDNAVVGLIDQLIREPAFNTLRTNEALGYIVWTGSRLNCGTVALNVIVQGPKSVDHVLERIEVFLESVRKEIAEMPQEEFDNQVSGMIARLEEKPKTLSSRFRRFWNEIECRQYNFARREEEVALLKTIKKDDVLELFDKKIRKDAAERRKLAVFVHGKNEDQEAVNTIIKKNAESGKKEKEVLYSDQLRQFLPLYGRPIAAIDLKPIGVDPLEHQETTKSKY	not soluble
MYVTIVYASVKTDKTEAFKEATRMNHEQSIREPGNMRFDILQSADDPTRFVLYEAYKTRKDAAAHKETAHYLTWRDTVADWMAEPRKGVIYGGLYPTGDD	soluble
MGSDKIHHHHHHMAKRSIAYLDSVFDISYTFIDHHSPLNALFLHGWGSSKEIMQQAFQGCFLNYNHLYVDLPGFNQSPNDEKVLETKDYANIINLFLKSVGKKAHVVFGHSFGGKVAILCENERMVLLSSAGILEPKPLKVRCKILLAKIFKKLGLNLGFLRSKDAMGLNQAMYETFKKVISEDFSDHFKRCEKEVLLFWGKDDKATPLSSAQKMQTLLKRSVLFVLEGDHFFFLNQAKEIEKLVENYHHAKS	not soluble
NAKVKRIRLGNLKKTVKLYDLIDEFHSTTLENLKNGLRTGRGYCIEINKQVVSMAKSTSENRTHAMIIGVGTHPKYRAKGLATKCLIKLCSELLRENKIPCLFYDNEEAGKIYKKLGFENIGKWGIYSK	not soluble
MSLTEFWNSFSNLFTGGRSTNRKIILVLLIMVLSSGVCSADNYVGGIPLTSAHSGTVSGGVYCDSYYGMGDQEAKASNTIEKTFTVPDNANVEWAMLLTNVYCGHMQNNYQGKAKVDFNGKNLGTETLNVPYTYSYNGGNGHVQVNDHVNRVTSDYMMYYDVTGLVKAGKNTAVVKTDPLDSSFDGRIRLVTLVVAYNDGSKKTIWYQVNRGHDADSYYSDDEMNENYIGSTAFQAALPEGSSLTDSKLTLVYQASSDGAYAFNGNALSSGTPQGTFSGSNTWDVKDSLKSSGTNTLTYDRTASFYKSVLGILTAEYTTSSSGDSTDDTPADNEGHHHHHH	soluble
MFVAEHEVEIRYAETDQMGVVYHSNYLVWLELGRTKLIQDLGFSYVEMEKEGIISPVLDLQISYRKAMRYGEKASVKTWVDTVSPLRVVYGYEIYNGDGELCITASTTNICAKKEGFRPVSFKKLYPEWYAKYEEIKKK	not soluble
HHYVKGELKIAASFTIGEYILPPLLAQLQKLYPELNLDVMIGNTEEVSERVRMLQADIGLIEGHTNENELEIEPFMEDEMCIAAPNQHPLAGRKEISISDLQNEAWVTREKGSGTREYLDHVLSSNGLRPKSMFTISSNQGVK	not soluble
MGSDKIHHHHHHMSETYPILIHLGEKLNRVIVGQSQLIQQLLVGLLSGGHIILEGVPGTGKTLLVKVLARLIQADFHRVQLTPDVLPSDITGTNIFDLNNRNFTLKKGPVFTEVLLADEINRTPPKTQAALLEAMEEMQVTLDGESLPLPDLFWVIATQNPLEFEGTYPLPEAQLDRFLFKLVVDYPDQTAEKQMLLNRQAGFAARRSDINSLQPIATVTDILEARQAVKAVKVSESIIDYLLALVRTSRQYPDLALGASPRAAGAWLQTSQAVAWLEGRDFVTPDDIKAVASPLLRHRLILKPEAMLDGLQIDAVIAAVVNQVAVPR	not soluble
MLNVESHVLRYWEEELEIKIPRNEMGHRYYTEDNIESLRKVRDLKKQGYSLKAIKNMVNPKKATRENKESNERLTVRQPISLMEVREKKVGVENCYQEVPEAMSGSVQSVVQNMTQSNGQNAESAGLKLEQFQNLMNKVVSKALKESTTNLGKELSDNVSENVLKGMNYMMRVQDEKEEERYRKLDELMRNKQKLSRREKRKKAKAEKLLLKNKKKGMAHFGKKPQTT	not soluble
MGSDKIHHHHHHMNEIRVSSWPALHEVLYGESWNPRLGRFRSPFVFRGQSRAEAKLTTTLQRLSGETREIERHLLRNFRKYAYRNGMDRDLPWYWLAVGQHHGLPTRLLDWTTSPLVALHFATAEEDHYSQDGVVWMVNFIRTNERLPAPLKALLEQEGADVFTVDMLTAFSRAHRSQQMPELGQQPSFDLSWLEDLEREAEHPFLLFLEPPSIDERIVQQAALFSLLSDPEAALDDWLVQHPGTAHKVILPADLKWEIRDKLDQSNITERTLFPGLGGLSQALRRYYRVGRDPSQQQGATAEEQAQEMERQN	not soluble
MSLGAMCFYHYWFLGKQLLEKPAEILLENKEINMPFLFSWANEPWTRAWDGSHRNVLMPQSYGTEADWEKHFNYLKPFFEDERYLKHDGKPIFIIYRTANFALCNEWISCWRELSKNTSFKDIHFVSSYTSFENDPRKLDFDAHLYFEPMCTVGHNLGYFNKKIKKINARLKRVINPKVWTTYVENTLQYDYLWEKILKKKINKTQYPGAFVDWDNSARKKSRALVIHGGSPKKFGLYLDKLYKRSIENNCPFLFINAWNEWAEGTYLEPDEKNKYSYLEELKKVIEKYEVEGHHHHHH	not soluble
